Earlier results as cited in PMC4741374.
pKd: −log10 of the molar value.

Tests used:
G-CSFR (Homo sapiens) = G-CSFR (Homo sapiens) (UniProt Q99062)
GM-CSFR (Homo sapiens) = GM-CSFR (Homo sapiens) (UniProt P15509)
Chain of UniProt P15509 (P15509 23-320, chain 1 of 2): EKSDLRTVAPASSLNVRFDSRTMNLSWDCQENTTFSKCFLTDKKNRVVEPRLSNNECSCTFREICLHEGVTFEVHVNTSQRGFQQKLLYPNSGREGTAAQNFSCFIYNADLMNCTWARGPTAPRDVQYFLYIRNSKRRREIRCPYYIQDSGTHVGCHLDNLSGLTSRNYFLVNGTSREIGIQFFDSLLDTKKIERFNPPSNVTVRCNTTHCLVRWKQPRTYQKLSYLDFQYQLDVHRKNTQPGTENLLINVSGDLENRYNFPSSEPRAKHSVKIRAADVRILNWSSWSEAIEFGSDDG
Chain of UniProt P15509 (P32927 17-443, chain 2 of 2, further chain): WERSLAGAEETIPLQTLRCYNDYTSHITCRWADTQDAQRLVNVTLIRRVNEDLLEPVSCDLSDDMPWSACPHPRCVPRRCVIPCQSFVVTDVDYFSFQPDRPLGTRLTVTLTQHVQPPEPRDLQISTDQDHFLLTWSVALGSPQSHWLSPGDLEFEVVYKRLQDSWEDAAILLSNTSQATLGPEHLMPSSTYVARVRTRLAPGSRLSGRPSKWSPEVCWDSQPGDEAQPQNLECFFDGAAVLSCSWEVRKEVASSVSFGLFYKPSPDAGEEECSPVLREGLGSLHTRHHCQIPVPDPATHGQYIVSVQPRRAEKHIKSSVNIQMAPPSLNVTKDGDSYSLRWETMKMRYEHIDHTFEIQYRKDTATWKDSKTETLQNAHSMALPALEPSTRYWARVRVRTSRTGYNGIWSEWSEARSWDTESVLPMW

Chain of UniProt Q99062 (Q99062 25-627): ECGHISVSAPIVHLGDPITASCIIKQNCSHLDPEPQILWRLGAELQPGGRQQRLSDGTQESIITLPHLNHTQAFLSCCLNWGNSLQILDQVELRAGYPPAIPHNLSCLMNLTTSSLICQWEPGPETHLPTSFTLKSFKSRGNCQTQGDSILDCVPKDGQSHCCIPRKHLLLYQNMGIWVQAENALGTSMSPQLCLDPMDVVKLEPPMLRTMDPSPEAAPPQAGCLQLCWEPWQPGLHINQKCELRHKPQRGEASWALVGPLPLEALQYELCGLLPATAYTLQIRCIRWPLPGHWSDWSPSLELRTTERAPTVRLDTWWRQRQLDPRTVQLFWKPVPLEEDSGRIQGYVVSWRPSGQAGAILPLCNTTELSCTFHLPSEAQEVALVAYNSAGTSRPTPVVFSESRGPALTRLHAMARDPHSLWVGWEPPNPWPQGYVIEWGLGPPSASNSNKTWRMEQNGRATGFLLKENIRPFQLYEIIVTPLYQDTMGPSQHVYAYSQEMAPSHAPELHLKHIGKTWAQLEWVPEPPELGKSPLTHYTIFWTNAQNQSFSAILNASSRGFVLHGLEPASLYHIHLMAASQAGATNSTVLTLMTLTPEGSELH

pKd (G-CSFR (Homo sapiens)) | pKd (GM-CSFR (Homo sapiens)) | Substance
9.30 | – | G-CSF (from UniProt P09919)
– | 10.00 | GM-CSF (from UniProt P04141)
